Measurements from patent US20060286117A1, “Neuronally expressed stem cell factor modulates angiogenesis and neural stem cell migration to areas of brain injury” (priority 2003, published 2006).
“Also recorded” adds a separate entry of the source.

Columns and labels:
[1] = target: mouse c-Kit (SCF receptor) on mouse NSPCs (mouse) (UniProt P05532); experiment: cell-based or functional assay
[2] = target: human c-Kit (SCF receptor) on human cells (NSPCs, HUVEC, HBMEC) (human) (UniProt P10721); experiment: cell-based or functional assay
U251 glioma = experiment: Subcutaneously implanted U251 human glioma growth; assay type: in vivo, mouse; conditions: nude mice
SCID mice [3] = experiment: In vivo angiogenesis assay, subcutaneous Matrigel plugs with SCF or β-FGF; set-up: species or system mouse; conditions: subcutaneous Matrigel in adult SCID mice, fourteen days after injection
Protocol: Confluent-grown ECs were treated with 50 ng/ml of SCF for 5, 10, 15, and 30 min after 24 hr of serum starvation. The ECs were collected with RIPA lysis buffer (Upstate, Charlottesville, Va.) containing 50 mM NaF, 1 mM Na3VO4, […], and Protease Inhibitor Cocktail (Roche). The antibodies were purchased from Cell Signaling Technology, Inc. (Beverly, Mass.) or as mentioned otherwise. All the primary antibodies were used in a 1:1000 dilution except for the anti-SCF antibody, which was used in a 1:2000 dilution. The primary antibodies were anti-phospho-c-Kit, anti-phospho-MEK1/2 and anti-MEK1/2, anti-phospho-p44/42 MAPK and anti-p44/42 MAPK, anti-phospho-SAPK/JNK and anti-SAPK/JNK, anti-phospho-p38 MAPK and anti-p38 MAPK, anti-phospho-Akt and anti-Akt, anti-phospho-mTOR and anti-mTOR, anti-phospho-4E-BP1 and anti-4E-BP1, anti-SCF and anti-VEGF (Chemicon, Temecula, Calif.), and anti-β-tubulin (Sigma). Re-blotting was done after membranes were stripped by re-blot kit (Chemicon). Tie2 detection in Matrigel plugs from the in vivo Matrigel assay was carried out by immunoprecipitation and immunoblotting. The gel plugs were carefully separated from muscle and skin and homogenized with RIPA lysis buffer. The resulting total tissue lysates ([…]) were immunoprecipitated with Tie2 antibody (Santa Cruz Biotechnology, Inc., Santa Cruz, Calif.) and then analyzed by immunoblot with Tie2 antibody (Zadeh et al. 2004 Am J Pathol 162:467-476).
All adult mice (6-8 weeks of age) were from NCI-Fredrick, and the animal experiments were conducted on an animal experimentation protocol approved by the NCI's animal protection committee (the “ACUC”). […]

c-Kit [4] = target: T1, c-Kit (Homo sapiens, UniProt P10721); experiment: c-Kit tyrosine phosphorylation by immunoprecipitation and immunoblot, human NSPCs; assay type: cell-based; conditions: 100 ng/ml of rmSCF, 10 min
T1 construct: The 120-kDa and 140-kDa bands represent the c-Kit proteins in the human and mouse NSPCs; endogenous in cells; host or cells: human fetal NSPCs (neurospheres)
Protocol: (§1) Injured dorsal forebrains were dissected 24 hours, 3 days, 5 days, 7 days and 12 days after injury and were homogenized in a lysis buffer containing 50 mM Tris-HCl (pH 8.0), 120 mM NaCl, 0.5% Nonidet P-40, and Protease Inhibitor Cocktail (Roche, Indianapolis, Ind., USA). Brain tissue was kept on ice for 30 min and supernatants were collected after centrifugation. The brain lysates were separated by a 4-12% polyacrylamide gel electrophoresis (Invitrogen) and transferred to the membranes. The filters were blotted with rabbit polyclonal anti-SCF antibody (1:50 dilution; Chemicon, Temecula, Calif., USA). The NSPCs were treated or not treated with 100 ng/ml of rmSCF or were left untreated for 10 min and then were washed with ice-cold PBS. Some mouse NSPCs were treated with rat monoclonal c-Kit blocking antibody, (ACK4; PharMingen, San Diego, Calif., USA) for 30 min at room temperature before SCF stimulation. The NSPCs were resuspended in a protease inhibitor mixture containing radioimmunoprecipitation (RIPA) buffer (1% NP-40, 0.5% Sodium deoxycholate, 0.1% SDS, 0.1 mg/ml PMSF, 0.1 mM NaVO4 in PBS). The cell lysates were pre-cleared with protein A-Sepharose (Amersham Pharmacia Biotech, Piscataway, N.J., USA), incubated with rabbit polyclonal antibody to c-Kit (Clone H-300, Santa Cruz, San Diego, Calif., USA), and collected on protein A-Sepharose beads. […]

c-Kit [5] = target: T2, c-Kit (Mus musculus, UniProt P05532); experiment: c-Kit tyrosine phosphorylation by immunoprecipitation and immunoblot, mouse NSPCs; assay type: cell-based; conditions: 100 ng/ml of rmSCF, 10 min
T2 construct: The 120-kDa and 140-kDa bands represent the c-Kit proteins in the human and mouse NSPCs; endogenous in cells; host or cells: mouse E14 NSPCs (neurospheres)
T2 sequence (P05532 25-979): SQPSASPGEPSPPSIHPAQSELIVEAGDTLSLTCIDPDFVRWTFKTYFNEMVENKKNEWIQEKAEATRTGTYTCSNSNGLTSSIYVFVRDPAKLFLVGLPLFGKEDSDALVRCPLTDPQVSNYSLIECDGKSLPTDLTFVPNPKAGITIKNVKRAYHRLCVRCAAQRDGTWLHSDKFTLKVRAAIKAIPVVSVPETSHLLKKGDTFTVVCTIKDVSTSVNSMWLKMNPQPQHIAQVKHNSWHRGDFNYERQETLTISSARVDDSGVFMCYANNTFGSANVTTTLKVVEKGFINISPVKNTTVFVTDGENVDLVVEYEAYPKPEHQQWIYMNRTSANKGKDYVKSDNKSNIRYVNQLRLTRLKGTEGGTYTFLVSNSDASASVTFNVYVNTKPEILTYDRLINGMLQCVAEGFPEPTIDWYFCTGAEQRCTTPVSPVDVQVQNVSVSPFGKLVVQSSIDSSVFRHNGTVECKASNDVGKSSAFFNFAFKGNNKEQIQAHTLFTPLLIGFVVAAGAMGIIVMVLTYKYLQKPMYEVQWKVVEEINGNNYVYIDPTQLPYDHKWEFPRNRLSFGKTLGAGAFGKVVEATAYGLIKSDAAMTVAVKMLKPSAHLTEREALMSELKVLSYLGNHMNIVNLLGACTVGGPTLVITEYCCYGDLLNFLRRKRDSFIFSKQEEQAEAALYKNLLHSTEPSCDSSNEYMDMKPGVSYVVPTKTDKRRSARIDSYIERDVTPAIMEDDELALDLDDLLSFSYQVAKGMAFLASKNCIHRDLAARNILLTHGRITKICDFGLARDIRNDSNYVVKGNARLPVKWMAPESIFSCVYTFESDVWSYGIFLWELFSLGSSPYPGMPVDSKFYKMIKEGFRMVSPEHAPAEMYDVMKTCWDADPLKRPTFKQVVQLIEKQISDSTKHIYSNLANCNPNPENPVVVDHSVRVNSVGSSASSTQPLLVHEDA
Protocol: as §1

endogenous NSPCs = experiment: In vivo progenitor cell migration, BrdU labeling and intracerebral rmSCF injection; set-up: species or system mouse
NIH 3T3 cells = experiment: Boyden chamber migration assay, NIH 3T3 negative control cells; assay type: cell-based; conditions: regardless of the concentration used
Protocol: (§2) The effects of SCF on NSPC migration were determined by a modified Boyden chamber assay as described previously (Sun, L. et al. 2001 Cancer Res. 61:4994-5001). A 96-well cell migration kit was utilized (Chemicon, Temecula, Calif., USA) and each well was separated into two chambers by a membrane with 8-μm pores. The cells were briefly trypsinized and adjusted to 4×10^5 cells/ml in 1:20 dilution of B27 medium without growth factors. Some cells were pretreated with a c-Kit-blocking antibody (ACK45, PharMingen, San Diego, Calif., USA) for 30 min at room temperature. Migration of NIH 3T3 cell was also assayed as a control. Recombinant mouse SCF (rmSCF) (R&D systems, Minneapolis, Minn., USA) was dissolved in the same medium and adjusted to the various concentrations. After different concentrations of SCF or brain tissue lysates were added to the lower chamber as attractants, 100 μl of the NSPCs (4×10^4) were applied to the upper chamber on the top of membrane. A group of control chambers without rmSCF was also included. After 4 hours of incubation at 37° C., the migratory cells on the bottom of the insert membrane were dissociated from the membrane by incubation with cell detachment buffer.

SCID mice [6] = experiment: In vivo angiogenesis assay, matrigel plug with rmSCF (Example 3); set-up: species or system mouse; conditions: rmSCF 50 ng/ml, subcutaneous, 7 days, vs PBS control
Protocol: Recombinant mouse SCF (rmSCF) was used at 50 ng/ml in an in vivo angiogenesis assay. The matrigel plug containing SCF or PBS control was placed subcutaneously in SCID mice for 7 days, and the blood vessel formation within the gel was examined by H&E staining. […] In the higher magnification figure on the right side, the red blood cells inside of the newly formed vessel are indicated by an arrow.

bMVEC-B cells = experiment: bMVEC-B DNA synthesis by thymidine incorporation (Example 3); assay type: cell-based; conditions: 72 hours
Protocol: To specifically confirm the pro-angiogenic effects of SCF in the brain, bMVEC-B cells were used. The cells were cultured in the presence of different concentrations of rmSCF (1 ng/ml to 250 ng/ml) or 0.1% BSA only medium for 72 hours. The rate of DNA synthesis was measured by thymidine incorporation.

mouse NSPCs = experiment: Boyden chamber migration assay, mouse NSPCs; assay type: cell-based
Protocol: as §2

human NSPCs = experiment: Boyden chamber migration assay, human NSPCs; assay type: cell-based
Protocol: as §2

[7] = rmSCF 3 μg intracerebral, day 7, SCID mice

Chain of mouse c-Kit (SCF receptor) on mouse NSPCs (mouse) (P05532 25-979): as above

Recombinant mouse SCF (rmSCF) (from UniProt P20826 26-189) (ligand)
lowest rmSCF concentration with a statistically significant increase in NSPC migration (Boyden chamber) [1]: 5 ng/mL | lowest rmSCF concentration with a statistically significant increase in NSPC migration (Boyden chamber) [2]: 10 ng/mL

bevacizumab: VEGF antibody (Genentech), systemically administered
subcutaneous tumor growth (U251 glioma): suppressed subcutaneously implanted human glioma growth; also recorded: profound tumor growth suppression

β-FGF: positive control angiogenic growth factor (R&D Systems) [reference compound]
angiogenesis in Matrigel plug (H&E, vWF-positive vessels) (SCID mice [3]): high density of blood vessels; also recorded: induced substantial angiogenesis

B1: rmSCF: Recombinant mouse SCF (rmSCF) (R&D systems) (protein)
chain: KEICGNPVTDNVKDITKLVANLPNDYMITLNYVAGMDVLPSHCWLRDMVIQLSLSLTTLLDKFSNISEGLSNYSIIDKLGKIVDDLVLCMEENAPKNIKESPKRPETRSFTPEEFFSIFNRSIDAFKDFMVASDTSDCVLSSTLGPEKDSRVSVTKPFMLPPVA
c-Kit tyrosine phosphorylation following SCF stimulation (c-Kit [4]): strongly phosphorylated | c-Kit tyrosine phosphorylation following SCF stimulation (c-Kit [5]): strongly phosphorylated | number of BrdU-positive cells in SCF-injected area (1.5-mm^2 section) compared to the contralateral side (endogenous NSPCs; [7]): approximately twice | number of BrdU-positive cells in injected area, SCF-treated compared to PBS-treated animals (endogenous NSPCs; [7]): 2.3 times | BrdU-positive cells in the SCF-injected area (endogenous NSPCs; vs contralateral side and PBS-injected animals, day 7): significant numbers of BrdU-positive cells | migration of NIH 3T3 cells (NIH 3T3 cells): did not induce migration | blood vessel formation within the matrigel plug (H&E) (SCID mice [6]): obviously abundant | lowest concentration at which bMVEC-B responded to SCF stimulation (bMVEC-B cells): 1 ng/mL | bMVEC-B DNA synthesis (thymidine incorporation) (bMVEC-B cells; rmSCF 1 ng/ml to 250 ng/ml): strongly stimulated bMVEC-B DNA synthesis | lowest SCF concentration with statistically significant increase in cell migration (mouse NSPCs): 5 ng/mL | NSPC migration (mouse NSPCs; rmSCF 5-500 ng/ml, 4 hours): stimulated in a dose-dependent manner; also recorded: significant chemoattractive effect on NSPC in a dose dependent manner | lowest SCF concentration with statistically significant increase in cell migration (human NSPCs): 10 ng/mL | NSPC migration (human NSPCs; rmSCF 5-500 ng/ml, 4 hours): stimulated in a dose-dependent manner; also recorded: significant chemoattractive effect on NSPC in a dose dependent manner
